Columns and labels:
[1] = target: T1, PgaA-220-367 (Escherichia coli, UniProt P69434); experiment: Tryptophan quenching, wild-type PgaA-220-367; type: binding, E. coli; details: substrate concentration 4.5 mM
T1 construct: His6 (thrombin cleavable, pET28) (N); made in house; host or cells: E. coli BL21 CodonPlus (DE3)
T1 sequence (P69434 220-367): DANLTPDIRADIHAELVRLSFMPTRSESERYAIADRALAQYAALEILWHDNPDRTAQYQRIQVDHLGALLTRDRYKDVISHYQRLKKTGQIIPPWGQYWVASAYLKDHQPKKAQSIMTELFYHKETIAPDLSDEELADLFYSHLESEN
Procedure: Fluorescence measurements were carried out at 20°C in a quartz cuvette (type no. 115F-QS; Hellma Analytics) using a PTI QuantaMaster 80 steady-state fluorometer (Photon Technology International), with a 4-nm bandwidth for both excitation and emission and a speed of 2 nm/s. Fluorescence spectra were collected between 300 nm and 400 nm with an excitation wavelength of 280 nm and a peak emission wavelength of 334 nm. All samples were prepared in triplicates 10 minutes ahead of the collection in a solution containing 1 μM protein, 20 mM Tris buffer pH 8.0, 150 mM sodium chloride and 1 mM concentrations of dPNAG oligomers. Data measured for each sample was corrected for ligand fluorescence and inner filter effect. […] To obtain an approximate binding affinity the dPNAG oligomer concentration was varied between 0–10 mM.

[2] = target: T2, His-PgaA (PgaA-32-807) (E. coli K-12, UniProt P69434 32-807); experiment: co-purification (NiNTA, gel filtration) with SDS-PAGE; His-PgaA and PgaB constructs co-expressed in BL21, extracted with 1% DDM, purified by NiNTA and gel filtration (20 mM Tris pH 8, 150 mM NaCl, 0.1% DDM); Coomassie gel of the purified complexes; details: partners not purified
T2 construct: also called His-PgaA-32-807; full-length PgaA; source: E. coli BL21: co-expressed with PgaB, in DDM extract of the lysate pellet (pull-down); expressed alone or with PgaB and purified (NiNTA, gel filtration, DDM); not shown: His6, N-terminal, kept
T2 sequence (looked up): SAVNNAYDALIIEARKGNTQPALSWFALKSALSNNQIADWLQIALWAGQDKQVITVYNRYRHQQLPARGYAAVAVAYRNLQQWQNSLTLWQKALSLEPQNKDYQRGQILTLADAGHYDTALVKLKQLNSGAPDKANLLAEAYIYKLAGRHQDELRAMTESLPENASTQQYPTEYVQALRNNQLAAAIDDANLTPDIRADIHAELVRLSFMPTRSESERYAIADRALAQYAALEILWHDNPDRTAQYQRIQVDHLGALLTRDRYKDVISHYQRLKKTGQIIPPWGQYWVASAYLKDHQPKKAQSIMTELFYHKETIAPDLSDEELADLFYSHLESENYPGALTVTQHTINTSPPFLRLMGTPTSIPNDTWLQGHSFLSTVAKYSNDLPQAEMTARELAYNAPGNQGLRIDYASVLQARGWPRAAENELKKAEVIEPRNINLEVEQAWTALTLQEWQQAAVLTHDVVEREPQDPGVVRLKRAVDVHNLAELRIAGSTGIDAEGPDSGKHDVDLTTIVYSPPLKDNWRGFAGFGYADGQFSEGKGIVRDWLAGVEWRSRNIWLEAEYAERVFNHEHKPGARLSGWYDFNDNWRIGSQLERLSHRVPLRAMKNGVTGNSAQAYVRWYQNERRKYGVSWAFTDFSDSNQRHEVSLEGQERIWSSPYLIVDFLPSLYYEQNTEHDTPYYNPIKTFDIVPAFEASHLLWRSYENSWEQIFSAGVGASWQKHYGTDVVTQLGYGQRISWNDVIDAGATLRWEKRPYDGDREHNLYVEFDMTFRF

[3] = Fluorescamine de-acetylation assay; type: biochemical; details: 30 μM enzyme and 30 mM PNAG hexamer; fluorescamine readout
Procedure: (§1) To determine whether the modulation of enzyme activity might be a common theme for the TPR domain across synthase-dependent systems, we assayed the deacetylase and glycoside hydrolase activities of PgaB in the presence and absence of PgaA. As we used co-expression to obtain the complexes, a SDS PAGE gel of the purified solutions of PgaA, PgaB and PgaA/B complexes was analyzed to ensure that equal quantities of the protein/protein complex were used (Fig 2A). Consistent with previous published studies, PgaA and PgaB appear to form a 1:1 complex. The deacetylase activity was assessed using a fluorescamine-based assay with fully acetylated PNAG hexamers as the substrate. As fluorescamine detects the presence of primary amines, which are generated during the deacetylation of the PNAG oligosaccharide, this assay provides a direct readout of the deacetylation activity of PgaB. To assess the glycoside hydrolase activity, we used a biofilm disruption assay, which has been used previously to characterize PgaB’s glycosidase activity. In this assay, biofilms of Staphylococcus epidermidis strain SE801 were grown in 96 well plates for 24 h, at which point PgaB was added. After a further 2 h, the reaction was quenched, plates washes and the amount of adherent biofilm remaining quantified using crystal violet staining. […]

[4] = tested on: Staphylococcus epidermidis strain SE801 biofilms; experiment: Crystal violet-based biofilm disruption assay (glycoside hydrolase activity); type: cell-based; details: S. epidermidis SE801 biofilm, 2 h, lower EC50 = higher glycoside hydrolase activity
Procedure: as §1, with “To assess the glycoside hydrolase activity, we used a biofilm disruption assay, which has been used previously to characterize PgaB’s glycosidase activity. In this assay, biofilms of Staphylococcus epidermidis strain SE801 were grown in 96 well plates for 24 h, at which point PgaB was added.” left out
Cultures of S. epidermidis clinical isolate SE801 were grown overnight at 37°C with shaking at 200 rpm in LB broth without antibiotics. […] The remaining dye was solubilized with 100 μl of 95% (v/v) ethanol for 10 min with rotation, after which time the absorbance was measured at 595 nm.

## chitin
[1]
  quenching of the signal at 334nm: 9%

B1: PgaB (PgaB-1-672) (enzyme, E. coli, UniProt P75906 21-672, looked up)
chain: CISQSRTSFIPPQDRESLLAEQPWPHNGFVAISWHNVEDEAADQRFMSVRTSALREQFAWLRENGYQPVSIAQIREAHRGGKPLPEKAVVLTFDDGYQSFYTRVFPILQAFQWPAVWAPVGSWVDTPADKQVKFGDELVDREYFATWQQVREVARSRLVELASHTWNSHYGIQANATGSLLPVYVNRAYFTDHARYETAAEYRERIRLDAVKMTEYLRTKVEVNPHVFVWPYGEANGIAIEELKKLGYDMFFTLESGLANASQLDSIPRVLIANNPSLKEFAQQIITVQEKSPQRIMHIDLDYVYDENLQQMDRNIDVLIQRVKDMQISTVYLQAFADPDGDGLVKEVWFPNRLLPMKADIFSRVAWQLRTRSGVNIYAWMPVLSWDLDPTLTRVKYLPTGEKKAQIHPEQYHRLSPFDDRVRAQVGMLYEDLAGHAAFDGILFHDDALLSDYEDASAPAITAYQQAGFSGSLSEIRQNPEQFKQWARFKSRALTDFTLELSARVKAIRGPHIKTARNIFALPVIQPESEAWFAQNYADFLKSYDWTAIMAMPYLEGVAEKSADQWLIQLTNQIKNIPQAKDKSILELQAQNWQKNGQHQAISSQQLAHWMSLLQLNGVKNYGYYPDNFLHNQPEIDLIRPEFSTAWYPKND
modifications: C21 lipidated (residues 1-20 are a signal sequence that is cleaved during periplasmic targeting)
notes: signal peptide in the construct; Untagged; also called full-length PgaB; untagged PgaB; source: E. coli BL21: co-expressed with His-PgaA constructs, in DDM extract or co-purified; also separately expressed, cell pellet mixed with the PgaA pellet before lysis
[2]
  stoichiometry N: 1

B2: PgaB: soluble E. coli PgaB residues 22–672, de-N-acetylase and glycoside hydrolase (protein)
chain: B1 chain
modifications: C21 lipidated (residues 1-20 are a signal sequence that is cleaved during periplasmic targeting)
notes: soluble E. coli PgaB residues 22–672, de-N-acetylase and glycoside hydrolase
[3]
  concentration of GlcN produced: 988.6 ± 104.7 µM
[4]
  EC50: 302 ± 82.3 nM
